Experimental data: US20190135918A1 (ICHNOS SCIENCES, published 2019)

B1: BEAT CD38-HB7bestfit/CD3 antibody (bispecific antibody, human IgG1, kappa, L234A L235A)
heavy: QVQLQESGPGLVKPSETLSLTCTVSGFSLISYGVHWVRQPPGKGLEWLGVIWRGGSTDYNAAFMSRLTISKDNSKNQVSLKLSSVTAADTAVYFCAKTLITTGYAMDYWGQGTLVTVSSASTKGPSVFPLAPSSKSTSGGTAALGCLVKDYFPEPVTVSWNSGALTSGVHTFPAVLQSSGLYSLSSVVTVPSSSLGTQTYICNVNHKPSNTKVDKKVEPKSCDKTHTCPPCPAPEAAGGPSVFLFPPKPKDTLMISRTPEVTCVVVDVSHEDPEVKFNWYVDGVEVHNAKTKPREEQYNSTYRVVSVLTVLHQDWLNGKEYKCKVSNKALPAPIEKTISKAKGQPREPAVYTLPPSRDELTKNQVKLVCLVTGFYPSDIAVEWESNGQPENNYYTTPPVLDSDGSFSLVSWLNVDKSRWQQGNVFSCSVMHEALHNHYTQKSLSLSPGK
light: DIQLTQSPSSLSASVGDRVTITCRASEDIYNRLAWYQQKPGKAPKLLISGATSLETGVPSRFSGSGSGKDYTLTISSLQPEDFATYYCQQYWSTPTFGQGTKLEIKRTVAAPSVFIFPPSDEQLKSGTASVVCLLNNFYPREAKVQWKVDNALQSGNSQESVTEQDSKDSTYSLSSTLTLSKADYEKHKVYACEVTHQGLSSPVTKSFNRGEC
chain: EVQLVESGGGLVQPGGSLRLSCAASGYTFTRYTMHWVRQAPGKGLEWIGYINPSRGYTYYADSVKGRFTLSTDKSKNTAYLQMSSLRAEDTAVYYCARYYDDHYCLDYWGQGTLVTVSSGGGGSGGGGSGGGGSGGGASDIQLTQSPSSLSASVGDRVTITCRASSSVSYVAWYQQKPGKAPKRWIYDTSKLYSGVPSRFSGSGSGTDYTLTISSLQPEDFATYYCQQWSSNPPTFGQGTKVEIKGGGGTDKTHTCPPCPAPEAAGGPSVFLFPPKPKDTLMISRTPEVTCVVVDVSHEDPEVQFKWYVDGVEVHNAKTKPREEQYNSTFRVVSVLTVLHQDWLNGKEYKCKVSNKALPAPIEKTISKTKGQPREPEVATFPPSREEMTKNQVTLVCLVTGFYPSDIAVEWESSGQPENNYNTDPPLLESDGSFALSSRLRVDKSRWQQGNIFSCSVMHEALHNRFTQKSLSLSPGK
notes: Anti-CD38 FAB arm and anti-CD3 epsilon scFv BEAT heavy chain (third chain)
B2: BEAT CD38-HB7bestfit/CD3(SP34) antibody (bispecific antibody)
heavy: QVQLQESGPGLVKPSETLSLTCTVSGFSLISYGVHWVRQPPGKGLEWLGVIWRGGSTDYNAAFMSRLTISKDNSKNQVSLKLSSVTAADTAVYFCAKTLITTGYAMDYWGQGTLVTVSSASTKGPSVFPLAPSSKSTSGGTAALGCLVKDYFPEPVTVSWNSGALTSGVHTFPAVLQSSGLYSLSSVVTVPSSSLGTQTYICNVNHKPSNTKVDKKVEPKSCDKTHTCPPCPAPEAAGGPSVFLFPPKPKDTLMISRTPEVTCVVVDVSHEDPEVQFKWYVDGVEVHNAKTKPREEQYNSTFRVVSVLTVLHQDWLNGKEYKCKVSNKALPAPIEKTISKTKGQPREPAVYTLPPSREEMTKNQVKLVCLVTGFYPSDIAVEWESSGQPENNYYTTPPMLDSDGSFSLVSWLNVDKSRWQQGNIFSCSVMHEALHNRFTQKSLSLSPGK
light: DIQLTQSPSSLSASVGDRVTITCRASEDIYNRLAWYQQKPGKAPKLLISGATSLETGVPSRFSGSGSGKDYTLTISSLQPEDFATYYCQQYWSTPTFGQGTKLEIKRTVAAPSVFIFPPSDEQLKSGTASVVCLLNNFYPREAKVQWKVDNALQSGNSQESVTEQDSKDSTYSLSSTLTLSKADYEKHKVYACEVTHQGLSSPVTKSFNRGEC
chain: not shown

What was measured:
human CD38 on cells = human CD38 on cells (human, UniProt P28907 1-300); assay: cell-based or functional assay
[1] = biological target: T1, soluble extracellular region of human CD38 fused to a 6-His-tag (human, UniProt P28907 43-300); assay: SPR, antibody captured on protein G, CD38 injected
T1 construct: Expressed with the murine VJ2C leader; also called human CD38 protein; human CD38 antigen

Binder	T cell redirected killing of RPMI 8226 myeloma cells, RDL-FACS method, EC50 (human CD38 on cells) [pM]	Kd [1] [nM]	T cell redirected killing of Daudi cells, RDL-FACS method, EC50 (human CD38 on cells) [pM]
B1	2.2	3.2	
B2			1.8
